No end group written: not given here.

The target in assay [1] is T1, APC (Homo sapiens, UniProt P04070). As to the kind of experiment: APTT and Xa-1-stage coagulation assays, inhibition of APC anticoagulant activity. The format is biochemical. Also noted: Protein C consists of a 155 amino acid residue light chain and a 262 amino acid residue heavy chain; from tissue; host or cells: human plasma factor IX concentrate. On the procedure:
The effect of the synthetic peptides on APC anticoagulant activity were determined using the APTT assay in the presence of either normal citrate anticoagulated plasma (NHP) or protein S depleted plasma (PSDP). The assays were performed essentially as described. See Marlar et al., Blood, 59:1067-1072 […]; Suzuki et al., J. Biol. Chem., 258:163-168 (1983); Gruber et al., Blood, 73:639-642 (1989); Ohlin et al., Biochem., 29:644-651 (1990). NHP was purchased from George King Bio-Medical, Inc. (Overland Park, Kans.). PSDP was prepared from a normal human citrate-anticoagulated plasma pool from ten healthy donors. Protein S was immunodepleted from the NHP by immunoaffinity chromatography of NHP over an anti-protein S antibody column to form PSDP. The anti-protein S antibody column was prepared by coupling 100 mg of a monoclonal, high-affinity, calcium-independent anti-PS antibody, designated S7, to 30 ml of CNBr-activated Sepharose 4B (Pharmacia) as described in Example 2cl).
For the APTT assay, APC was prepared as described in Example 2c2). […] The concentration of the APC used in the assay was initially optimized with respect to the sensitivity of the assay towards APC-induced prolongation of clotting time compared to clotting time without APC.
Once the optimal concentration of APC was determined, peptides from the heavy and light chains of PC and control scrambled peptides listed below in Example 5a2) in Tables 6 and 7 were then separately admixed for a final concentration of 500 μM with 10 nM APC in 100 μl of TBS-BSA at pH 7.4 to form peptide-APC admixtures. Peptides were prepared as described in Example 1. The resulting admixtures were maintained for ten minutes at 37° C. Separate aliquots of peptides maintained under the same conditions in the absence of APC served as controls for the inhibitory effect of synthetic peptides on APC anticoagulant activity. After the maintenance period, 100 μl of NHP and 100 μl APTT-reagent Thrombosil (Ortho Diagnostics, Raritan, N.J.) were admixed into each peptide admixture and maintained for 200 seconds at 37° C. to form a pre-coagulation admixture. In some experiments, PSDP was used in the place of NHP to determine the effect of Protein S on the assay system. Coagulation was then initiated by the admixture of 100 μl of 30 mM CaCl2 in TBS prewarmed to 37° C. to each of the pre-coagulation admixtures. The time for clot formation was measured by an Electra 700 Automatic Coagulation Timer (Medical Laboratory Automation, Inc., Mount Vernon, N.Y.). Each peptide's effect was determined in duplicate.
For peptides at a concentration of 500 μM that inhibited at least 50% of APC anticoagulant activity, analysis of dose-response was subsequently conducted.
For testing the inhibition of the synthetic peptides on APC activity described above, Xa-1-stage coagulation assays were also performed as described. See Seegers et al., Thrombosis Res., 13:233-243 (1978); Marlar et al., supra; and Walker et al., J. Biol. Chem., 265:1484-1489 (1990).
Target sequence in this assay (P04070 43-197 limits assumed): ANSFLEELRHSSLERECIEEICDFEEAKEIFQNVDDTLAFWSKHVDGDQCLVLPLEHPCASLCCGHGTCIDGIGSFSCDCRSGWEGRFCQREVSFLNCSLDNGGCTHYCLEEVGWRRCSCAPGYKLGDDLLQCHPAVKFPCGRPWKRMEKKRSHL
Target sequence in this assay (P04070 212-450 limits assumed): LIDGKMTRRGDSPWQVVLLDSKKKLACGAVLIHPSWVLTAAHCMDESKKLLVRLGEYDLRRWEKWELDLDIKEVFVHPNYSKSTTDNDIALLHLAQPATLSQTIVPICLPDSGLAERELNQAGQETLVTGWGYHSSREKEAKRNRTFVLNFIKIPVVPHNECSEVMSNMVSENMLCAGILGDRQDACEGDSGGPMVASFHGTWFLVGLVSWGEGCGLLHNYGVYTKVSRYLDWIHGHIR

Assay [2] deals with T1, APC. The assay can be described thus: inhibition of APC by recombinant mutant (Arg358)-α1-antitrypsin, time course. The format is biochemical. Also noted: Protein C consists of a 155 amino acid residue light chain and a 262 amino acid residue heavy chain; from tissue; alpha1-AT mutant from Transgene, Strasbourg. The following applies: 250 μM PC311-325, 500 μM PC142-155; 18 nM APC, 100 nM α1-AT. On the procedure:
Kinetic studies of inhibition of APC were performed with the higher affinity mutant α1 -AT pseudo-substrate. For the assay, 60 μl of 36 nM APC and/or 60 μl of 200 nM recombinant (Arg^358)-α1 -AT prepared in TBS-BSA at pH 7.4 containing 0.02% NaN3 and 2 mM CaCl2 were separately admixed with 500 μM PC311-325 or 1 mM PC142-155 and maintained for 30 minutes at 37° C. to form APC-peptide and/or α1 -AT-peptide admixtures for each peptide tested, respectively. Thereafter, the peptide-treated APC and α1 -AT admixtures were combined to form a reaction admixture. At selected time points, 8 μl aliquots from the reaction admixture were removed and admixed with 300 μl 0.8 mM S-2366 in TBS-BSA at pH 8.0 containing 0.02% NaN3 to initiate the hydrolysis of S-2366 by APC. The change in absorbance was measured over time as described in the amidolytic assay. […]
Since the number of amino acid residues involved in neutralization of APC by macromolecular plasma protease inhibitors is likely to be higher than the number of residues of APC involved in the cleavage of a small chromogenic substrate such as S-2366, the effect of anti-PC317-331 antibody on the time course of inhibition of APC by a larger pseudo-substrate, such as recombinant mutant (Arg^358)-α1 -AT was evaluated. […] The change in absorbance was measured over time as described in the amidolytic assay. […]
Target sequence in this assay (P04070 43-197): as the sequence (P04070 43-197 limits assumed) above
Target sequence in this assay (P04070 212-461): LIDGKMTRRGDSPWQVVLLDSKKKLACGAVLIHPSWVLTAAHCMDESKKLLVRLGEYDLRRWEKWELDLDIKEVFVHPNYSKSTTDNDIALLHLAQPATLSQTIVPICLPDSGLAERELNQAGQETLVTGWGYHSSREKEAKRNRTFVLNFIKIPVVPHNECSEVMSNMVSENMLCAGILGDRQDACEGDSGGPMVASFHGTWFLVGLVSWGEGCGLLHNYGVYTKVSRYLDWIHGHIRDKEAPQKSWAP

[3] abbreviates: mean values of APTT and Xa-1 stage assays, NHP, control peptide at 500 μM (±10%).

With “VKFTIRVFNPRNLKI [Control Peptide, reference compound]”, in assay [1] (setting [3]), the “IC50 (concentration of peptide that inhibits 50% of APC anticoagulant activity)” value is “no effect” and the “IC90 ** μM (concentration of peptide that inhibits 90% of APC anticoagulant activity)” value was “no effect”. In assay [1] (various concentrations up to 500 μM peptide), the “effect on APC anticoagulant activity” value is given as “no significant effect”.

“KRNRTFVLNFIKIPV-NH2 [PC311-325, Lys-Arg-Asn-Arg-Thr-Phe-Val-Leu-Asn-Phe-Ile-Lys-Ile-Pro-Val]”: the “effect on the time course of inhibition of APC by recombinant (Arg358)α1-AT” value in assay [2] is reported as “did not have any significant effect”. Also, in assay [1] (APTT and Xa-1-stage assays in NHP and PSDP), the “90% inhibition of APC anticoagulant activity” value is given as “approximately 50 μM”. Also, the IC50 in assay [1] (APTT and Xa-1-stage assays in NHP and PSDP, read-out: 50% inhibition of APC anticoagulant activity) was 7 to 20 µM.

Source of the values: patent US5968751A, “Method for detecting the presence of protein C antibody in a fluid sample” (The Scripps Research Institute, priority 1997, dated 1999).
